Patent publication US20170296524A1

Molecular target: T1, MCT1 (monocarboxylate transporter 1), endogenous (human), P53985
T1 chain: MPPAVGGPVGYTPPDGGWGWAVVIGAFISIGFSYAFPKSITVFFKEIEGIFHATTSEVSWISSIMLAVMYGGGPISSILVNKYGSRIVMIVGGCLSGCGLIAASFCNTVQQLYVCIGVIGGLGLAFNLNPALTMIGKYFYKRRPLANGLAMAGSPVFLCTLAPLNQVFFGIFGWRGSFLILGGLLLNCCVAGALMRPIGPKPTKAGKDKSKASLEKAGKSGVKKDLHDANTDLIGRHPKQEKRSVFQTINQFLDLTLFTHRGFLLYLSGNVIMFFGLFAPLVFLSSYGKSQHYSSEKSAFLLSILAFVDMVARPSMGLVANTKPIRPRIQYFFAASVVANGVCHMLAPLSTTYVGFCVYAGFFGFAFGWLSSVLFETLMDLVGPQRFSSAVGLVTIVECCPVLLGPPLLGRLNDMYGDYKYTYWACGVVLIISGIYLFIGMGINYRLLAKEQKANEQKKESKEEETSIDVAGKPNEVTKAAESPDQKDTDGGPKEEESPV
Experiment: tandem affinity purification of CRBN-SF, mass spectrometry
Conditions: remark: other sources report otherwise

- unique peptides identified in the screen (unique peptides): 6
B1: Strep-Flag tagged CRBN (CRBN-SF), Q96SW2 1-442 (protein, human, UniProt Q96SW2 1-442, looked up, not shown: small tags and cut ends)
chain: MAGEGDQQDAAHNMGNHLPLLPAESEEEDEMEVEDQDSKEAKKPNIINFDTSLPTSHTYLGADMEEFHGRTLHDDDSCQVIPVLPQVMMILIPGQTLPLQLFHPQEVSMVRNLIQKDRTFAVLAYSNVQEREAQFGTTAEIYAYREEQDFGIEIVKVKAIGRQRFKVLELRTQSDGIQQAKVQILPECVLPSTMSAVQLESLNKCQIFPSKPVSREDQCSYKWWQKYQKRKFHCANLTSWPRWLYSLYDAETLMDRIKKQLREWDENLKDDSLPSNPIDFSYRVAACLPIDDVLRIQLLKIGSAIQRLRCELDIMNKCTSLCCKQCQETEITTKNEIFSLSLCGPMAAYVNPHGYVHETLTVYKACNLNLIGRPSTEHSWFPGYAWTVAQCKICASHIGWKFTATKKDMSPQKFWGLTRSALLPTIPDTEDEISPDKVILCL
